What was measured:
Test in all cases: pull-down
[1] = target: GST-Gαi3 G203A (rat, inactive mutant) (rat) (UniProt P08753)
[2] = target: GST-Gαi3 wild type (rat) (rat) (UniProt P08753)
GST-Gαs (human) (human) = GST-Gαs (human) (human) (UniProt P63092)
Sequence of UniProt P63092 (P63092 2-394): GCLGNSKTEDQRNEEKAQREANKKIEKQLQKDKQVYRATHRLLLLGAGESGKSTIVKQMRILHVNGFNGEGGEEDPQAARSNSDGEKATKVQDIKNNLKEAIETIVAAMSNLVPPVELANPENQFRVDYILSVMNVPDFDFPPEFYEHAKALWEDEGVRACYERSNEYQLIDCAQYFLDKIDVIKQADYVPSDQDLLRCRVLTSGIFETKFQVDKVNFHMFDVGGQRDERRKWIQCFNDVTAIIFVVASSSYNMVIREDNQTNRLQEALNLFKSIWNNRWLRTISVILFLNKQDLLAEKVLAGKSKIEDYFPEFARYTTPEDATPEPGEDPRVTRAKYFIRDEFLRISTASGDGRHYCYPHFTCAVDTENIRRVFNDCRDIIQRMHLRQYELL

Substance | fold more GIV bound than by Gαi3Q204L [1] [fold] | percent of the total GIV bound [2] [%] | fold less GIV bound than by GST-Gαi3 (GST-Gαs (human) (human)) [fold] | percent of GIV bound to GST-Gαi3 [2] [%]
GIV (Gα-interacting vesicle-associated protein), endogenous in HeLa cell lysate (natural protein) | 10 to 15 | 10 to 30 | 100 to 300 | –
GIV S1416A, in vitro translated (natural protein) | – | – | – | 13
GIV S1416D, in vitro translated (natural protein) | – | – | – | 14
GIV, full length, in vitro translated (natural protein) | 10 to 15 | – | 100 to 300 | 14
